Data on twelve molecules can be found in patent US5945329A, “Customized proteases” (Carlsberg A/S, priority 1997, dated 1999).

Residue numbers refer to the chain shown, from its start. Names and notes keep the numbering of the source.

In data set [1] the target is T1, carboxypeptidase Y (CPD-Y) variant E145A (Glu145 replaced by alanine) (Saccharomyces cerevisiae, UniProt P00729, E256A).
T1 construct: made in house; host or cells: S. cerevisiae W2579 (secreted)
The experiment in a line: Aminolysis; KN(app) of nucleophile. The following applies: pH 7.5; for Kn,app (H-Val-NH2 as nucleophile): Table VI, substance of the line is the substrate (leaving group varied); for Kn,app: Table V, amino acid nucleophile, FA-Ala-OBzl as substrate. It counts as biochemical, yeast. The procedure:
(§1) Aminolysis reactions were carried out in the following way. The nucleophile was dissolved in 50 mM Hepes, 5 mM EDTA and pH was adjusted to 7.5. Five (5) μl of substrate (8 mM FA-Ala-OBzl in methanol) was added to 190 μl nucleophile solution followed by 5 μl enzyme, resulting in a substrate concentration of 0.2 mM. For reactions carried out at pH 9.5, Hepes was replaced with Ches. During the reaction, 20 μl aliquots were removed from the reaction mixture and added to 50 μl 1% trifluoroacetic acid to quench the reaction. The reactant composition was determined by HPLC using a Waters HPLC equipped with a C-18 Waters Novapac 4μ reverse phase column and various gradients of acetonitrile in 0.1% trifluoroacetic acid. The separation was monitored at 302 nm allowing the direct quantification of the products from the integrated peak areas. The composition of the reaction mixture was determined at least twice during the reaction, the first time when 20-50% (preferably 35%) of the ester substrate had been consumed in the reaction and the second time when 50-90% (preferably 80%) of the substrate had been consumed. The products were collected and identified by amino acid analysis after acid hydrolysis using a Pharmacia Alpha Plus analyzer.
(§2) Further identification was obtained by co-chromatography of authentic standard compounds. The fraction of aminolysis (fa) was expressed as the ratio between the formed aminolysis product and the sum of all products being formed, i.e., unconsumed substrate was disregarded in the calculations. The KN(app), representing the nucleophile concentration at which fa is half the maximum value (a measure for the dissociation constant of the nucleophile), and famax (the highest possible fa obtained at saturation of the enzyme with nucleophile) were determined by fitting the values of fa obtained at a minimum of seven concentrations of nucleophile to a saturation. The value of fa obtained at the highest possible nucleophile concentration is designated fasat.
(§3) Aminolysis reactions were carried out in the following way. The nucleophile was dissolved in 50 mM HEPES, 5 mM EDTA and pH was adjusted to 7.5, 5 μl substrate (8 mM FA-Ala-OBzl or FA-Ala-Xaa-OH in methanol) was added to 190 μl nucleophile solution followed by 5 μl enzyme diluted in buffer to the appropriate concentration, resulting in a substrate concentration of 0.2 mM. During the reaction, 20 μl aliquots were removed from the reaction mixture and added to 50 μl 1% trifluoroacetic acid to quench the reaction. The reactant composition was determined by HPLC using a Waters HPLC equipped with a C-18 Waters Novapac 4μ reverse phase column and various gradients of acetonitrile in 0.1% trifluoroacetic acid. The separation was monitored at 302 nm allowing the direct quantification of the products from the integrated peak areas. The products were collected and identified by amino acid analysis after acid hydrolysis (Pharmacia Alpha Plus analyzer) and by co-chromatography of authentic standards. The fraction of aminolysis (fa) was expressed as the ratio between the formed aminolysis product and the sum of all products being formed, i.e. unconsumed substrate was disregarded in the calculations. The KN,app (a measure for the dissociation constant of the nucleophile) and famax (the highest possible fa obtained at saturation with nucleophile were determined by fitting the obtained fa values to the equation fa=famax /(1+KN,app /N).

Data set [2] deals with T2, carboxypeptidase Y (CPD-Y) variant E65A (Glu65 replaced by alanine) (Saccharomyces cerevisiae, UniProt P00729, E176A).
T2 construct: made in house; host or cells: S. cerevisiae W2579 (secreted)
Put plainly: Aminolysis; KN(app) of nucleophile. To be noted: pH 7.5; for Kn,app (H-Val-NH2 as nucleophile): Table VI, substance of the line is the substrate (leaving group varied). It counts as biochemical, yeast. The procedure: as §1, §2, §3

Data set [3] deals with T3, carboxypeptidase Y (CPD-Y) variant N51Q (Asn51 replaced with glutamine) (Saccharomyces cerevisiae, UniProt P00729, N162Q).
T3 construct: made in house; host or cells: S. cerevisiae W2579 (secreted)
T3 sequence (P00729 112-532 N162Q): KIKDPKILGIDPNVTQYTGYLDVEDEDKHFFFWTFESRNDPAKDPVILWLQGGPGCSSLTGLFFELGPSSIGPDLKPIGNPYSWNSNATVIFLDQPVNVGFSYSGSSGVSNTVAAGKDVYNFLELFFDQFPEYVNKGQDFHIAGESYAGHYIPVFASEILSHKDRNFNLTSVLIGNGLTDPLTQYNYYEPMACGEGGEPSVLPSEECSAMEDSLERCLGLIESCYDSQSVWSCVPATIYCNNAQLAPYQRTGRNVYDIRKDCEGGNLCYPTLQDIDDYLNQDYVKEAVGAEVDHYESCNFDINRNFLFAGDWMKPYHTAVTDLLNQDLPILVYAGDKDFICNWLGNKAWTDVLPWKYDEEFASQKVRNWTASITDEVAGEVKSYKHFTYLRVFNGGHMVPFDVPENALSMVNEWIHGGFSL
The experiment in a line: Aminolysis; KN(app) of nucleophile. The data set is classed as biochemical, yeast. To be noted: for Kn,app (H-Val-NH2 as nucleophile): Table VI, substance of the line is the substrate (leaving group varied); for Kn,app (H-Val-NH2 as nucleophile) / Kn,app: pH 7.5; for KN(app): Table III (unit as in Tables I, II), ester substrate; for KN(app) / Kn,app: amino acid nucleophile; for Kn,app: Table V, FA-Ala-OBzl as substrate. Here is the method:
as §1, §2, §3

For data set [4], the target named is T4, yeast carboxypeptidase Y (CPD-Y), wild type (SEQ ID NO:32) (Saccharomyces cerevisiae, UniProt P00729).
T4 construct: purchased Carlbiotech, Copenhagen, Denmark
T4 sequence (P00729 112-532): T3 sequence (P00729 112-532 N162Q) with Q51N
The experiment in a line: Aminolysis of ester/peptide substrates; KN(app) of nucleophile. It counts as biochemical. The following applies: for Kn,app (H-Val-NH2 as nucleophile): Table VI, substance of the line is the substrate (leaving group varied); for Kn,app: Table V, FA-Ala-OBzl as substrate. The procedure:
as §1, §2, §3

Substrate in data set [5]: CC(C)[C@H](NC(=O)[C@H](Cc1ccccc1)NC(=O)C=Cc1ccco1)C(=O)O
Put plainly: Hydrolysis of FA-Phe-Val-OH. The data set is classed as biochemical, yeast. The following applies: other: hydrolysis of FA-Phe-Val-OH.

[6] abbreviates: Table II, amino acid nucleophile, substrate FA-Ala-OBzl, pH 7.5.
The mark [7] stands for this setting: Table III (unit as in Tables I, II), amino acid nucleophile, ester substrate.

T1 sequence (P00729 112-532 E256A): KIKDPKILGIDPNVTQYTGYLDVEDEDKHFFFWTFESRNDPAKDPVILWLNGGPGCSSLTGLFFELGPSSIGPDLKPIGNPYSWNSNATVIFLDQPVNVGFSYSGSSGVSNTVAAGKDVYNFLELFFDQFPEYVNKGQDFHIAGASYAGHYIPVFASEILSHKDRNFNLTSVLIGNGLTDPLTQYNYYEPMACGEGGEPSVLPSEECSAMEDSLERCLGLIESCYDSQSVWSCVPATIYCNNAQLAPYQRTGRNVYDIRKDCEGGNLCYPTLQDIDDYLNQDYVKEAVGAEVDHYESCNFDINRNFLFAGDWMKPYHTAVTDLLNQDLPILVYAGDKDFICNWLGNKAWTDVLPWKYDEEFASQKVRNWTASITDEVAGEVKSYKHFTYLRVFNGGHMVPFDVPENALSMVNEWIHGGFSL
T2 sequence (P00729 112-532 E176A): as the sequence (P00729 112-532 E256A) above, with E65A, A145E counted along it

Regarding `CC(C)C[C@H](NC(=O)[C@H](C)NC(=O)C=Cc1ccco1)C(=O)O` [FA--Ala--Leu--OH, FA-Ala-Leu-OH], the “Kn,app (H-Val-NH2 as nucleophile)” value in data set [1] was 4.1 ± 0.1 mM; in data set [2] it was 5.2 ± 0.1 mM; in data set [3], 2.4 ± 0.1 mM; in data set [4] (pH 7.5), 1.6 ± 0.1 mM.

For `C[C@H](NC(=O)C=Cc1ccco1)C(=O)N[C@@H](Cc1ccccc1)C(=O)O` [FA--Ala--Phe--OH, FA-Ala-Phe-OH], the “Kn,app (H-Val-NH2 as nucleophile)” value amounted to 4.1 ± 0.1 mM in [1], 4.7 ± 0.1 mM in [2], 3.1 ± 0.1 mM in [3] and 1.1 ± 0.1 mM in data set [4] (pH 7.5).

For the molecule `CC(C)C[C@H](N)C(=O)O` [H--Leu--OH, H-Leu-OH], the “Kn,app” value in data set [1] is 40 ± 2 mM; in data set [3], 42 ± 1 mM; in data set [4] (amino acid nucleophile, pH 7.5), 10 ± 1 mM. Further, the “KN(app)” value in data set [3] was 42 ± 1 mM; in [4] (setting [6]), 10 ± 0.8 mM; in [4] (setting [7]) it was 10 ± 1 mM.

Turning to `CC(C)[C@H](N)C(=O)O` [H--Val--OH, H-Val-OH], the “Kn,app” value is reported as 79 ± 6 mM in data set [1]; 69 ± 2 mM in data set [2] (Table V, amino acid nucleophile, FA-Ala-OBzl as substrate); 61 ± 2 mM in data set [3]; 13 ± 1 mM in data set [4] (amino acid nucleophile, pH 7.5). Further, the “KN(app)” value in [3] was 61 ± 3 mM; in [4] (Table I, amino acid nucleophile, substrate FA-Ala-OBzl 0.2 mM, pH 7.5), 13 ± 1 mM; in data set [4] (setting [6]), 13 ± 1 mM; in data set [4] (setting [7]) it was 13 ± 1 mM; in data set [4] (nucleophile with substrate FA-Ala-OBzl, pH 7.5), 13 mM.

Turning to “carboxypeptidase Y mutant 178Ser (enzyme)”, the estimated CPD-Y activity relative to wild type transformants (fold of wild type) is 1.1 with CBZ-Gly-Leu-OH, 1.2 with CBZ-Trp-Leu-OH, 1.1 in the data set with CBZ-His-Leu-OH and 1.8 with CBZ-Pro-Leu-OH. The kcat/Km of hydrolysis in the data set with CBZ-Ser-Leu-OH turned out to be 100000 M⁻¹ s⁻¹; with CBZ-Lys-Leu-OH, 61700 M⁻¹ s⁻¹; with CBZ-Phe-Leu-OH, 3.33e+06 M⁻¹ s⁻¹; with CBZ-Glu-Leu-OH, 12000 M⁻¹ s⁻¹; with CBZ-Ala-Leu-OH it was 80000 M⁻¹ s⁻¹.

“carboxypeptidase Y mutant 178Ser/215Ala/216Pro (enzyme)”: the estimated CPD-Y activity relative to wild type transformants (fold of wild type) is 0.6 in the data set with CBZ-Gly-Leu-OH, 1.9 with CBZ-Trp-Leu-OH, 0.9 with CBZ-His-Leu-OH and 2.8 with CBZ-Pro-Leu-OH. Further, the kcat/Km of hydrolysis with CBZ-Ser-Leu-OH came out at 50000 M⁻¹ s⁻¹; in the data set with CBZ-Lys-Leu-OH it was 36700 M⁻¹ s⁻¹; in the data set with CBZ-Phe-Leu-OH, 1.83e+06 M⁻¹ s⁻¹; in the data set with CBZ-Glu-Leu-OH, 8330 M⁻¹ s⁻¹; in the data set with CBZ-Ala-Leu-OH, 40000 M⁻¹ s⁻¹.

For the molecule carboxypeptidase Y mutant E65A (enzyme), the famax of transpeptidation (nucleophile H-Val-NH2) was found to be 0.71 in the data set with FA-Ala-Leu-OH, 0.66 with FA-Ala-Phe-OH, 0.96 with FA-Ala-Ala-OH and 0.67 with FA-Ala-Val-OH.

In the case of “carboxypeptidase Y mutant E145A (enzyme)”, the values for the famax of transpeptidation (nucleophile H-Val-NH2) with FA-Ala-Leu-OH, with FA-Ala-Phe-OH and with FA-Ala-Val-OH were 0.65, 0.49 and 0.8, respectively.

As for carboxypeptidase Y mutant N51Q (enzyme), the famax of transpeptidation (nucleophile H-Val-NH2) is 0.8 with FA-Ala-Leu-OH, 0.77 in the data set with FA-Ala-Phe-OH, 0.98 in the data set with FA-Ala-Ala-OH and 0.91 in the data set with FA-Ala-Val-OH. The kcat/KM of hydrolysis with FA-Phe-Val-OH amounted to 300000 M⁻¹ s⁻¹.

carboxypeptidase Y mutant N51S (enzyme): the famax of transpeptidation (nucleophile H-Val-NH2) with FA-Ala-Ala-OH worked out at 0.88; with FA-Ala-Val-OH it was 0.13. In the data set with FA-Phe-Val-OH, the kcat/KM of hydrolysis turned out to be 800000 M⁻¹ s⁻¹.

B1: carboxypeptidase Y (CPD-Y) variant N51Q (Asn51 replaced with glutamine) (Saccharomyces cerevisiae S288C; N162Q) (protein)
chain: T3 sequence (P00729 112-532 N162Q)
notes: made in house; host or cells: S. cerevisiae W2579 (secreted)
What is called Km is the concentration of substrate that gives half-maximal velocity. A word on the kcat: it is the number of substrate molecules converted per active site and unit of time at saturation. The kcat/Km is the second-order rate constant that governs catalysis at low substrate concentration. For B1, in data set [5], the Km came out at 85 µM, the kcat was 25 s⁻¹ and the kcat/Km amounted to 300000 M⁻¹ s⁻¹.

B2: carboxypeptidase Y (CPD-Y) variant N51S (Asn51 replaced with serine) (Saccharomyces cerevisiae S288C; N162S) (protein)
chain: T3 sequence (P00729 112-532 N162Q) with Q51S
notes: as for B1
For B2, in data set [5], the Km is 170 µM, the catalytic constant (kcat) turned out to be 135 s⁻¹ and the kcat/Km was found to be 800000 M⁻¹ s⁻¹.
